Like-named read-outs stand apart in the source and are kept apart here. Ends that are not written are not given here.
Tests used:
[1] = design: species or system mice; settings: mouse, in vivo
Protocol: Some studies involved pre-incubation of the ^99mTc-IKVAV-containing peptide in whole blood prior to injection and determination of biodistribution. In these studies, whole human blood was obtained from a healthy adult male donor and collected into Vacutainer tubes containing EDTA. After mixing to insure proper dissolution of the EDTA, approximately 2.5 ml of the whole blood was removed and mixed with 0.25 ml of ^99mTc-peptide. The mixture was allowed to incubate 30 minutes at room temperature. After 30 minutes, aliquots of 0.1 ml were injected into the tail vein of the mice. The amount of radioactivity in the circulation for ^99mTc-IKVAV-containing peptide pre-incubated in whole blood was higher than in animals receiving ^99mTc-IKVAV-containing peptide without incubation in blood.

[2] = design: species or system adult female Fischer 344 rats; settings: rat, in vivo
Protocol: The clearance rates of the ^99mTc-IKVAV-containing peptide of Example 4 was evaluated in adult female Fischer 344 rats at 2 hours after injection. Each experimental group was composed of three animals. Each animal was anaesthetised with ketamine and the bile duct and bladder were cannulated. Blood was collected over various periods of time from the jugular vein.

[3] = design: species or system tight-skin (Tsk) mouse; settings: mouse, in vivo
From the text: Biodistribution was also studied in a lung disease model which used tight-skin mice with genetic emphysema. The tight-skin (Tsk) mouse is a genetic mutant caused by a dominant gene deficiency of serum anti-elastase. Heterozygous (Tsk/+) animals show multiple skin connective tissue abnormalities resembling scleroderma as well as an increased growth of cartilage, bone, and small tendons with hyperplasia of the tendon sheaths. The Tsk trait is associated with progressive pulmonary emphysema and development of right ventricular hypertrophy, as well as with lung collagen changes. These mice, as well as genetic control mice (pallid), were obtained from The Jackson Laboratory (Bar Harbor, ME). The relative localisation of ^99mTc-IKVAV-peptide of Example 4 at all time points examined (10, 30, and 120 minutes post-injection), was decreased in the lungs of animals with emphysema relative to paired control animals.

[4] = freshly radiolabelled
[5] = Biodistribution after pre-incubation of 99mTc-YIGSR-peptide in whole human blood; format: in vivo, mice; settings: pre-incubated 30 minutes in whole human blood, compared with no incubation in blood
Protocol: Some studies involved pre-incubation of the ^99mTc-YIGSR-peptide in whole blood prior to injection and determination of biodistribution (Table 7). In these studies, whole human blood was obtained from a healthy adult donor and collected into Vacutainer tubes containing EDTA. After mixing to insure proper dissolution of the EDTA, approximately 2.5 ml of the whole blood was removed and mixed with 0.25 ml of ^99mTc-YIGSR-peptide. The mixture was allowed to incubate 30 minutes at room temperature. After 30 minutes, aliquots of 0.1 ml were injected into the tail vein of the mice. The amount of radioactivity in the circulation for ^99mTc-YIGSR-peptide of Example 12 pre-incubated in whole blood was similar to that in animals receiving ^99mTc-YIGSR-peptide without incubation in blood.

[6] = Clearance rates of 99mTc-YIGSR-peptide (plasma, urine, bile; cannulated animals); format: in vivo, adult female Sprague-Dawley rats
Protocol: The clearance rates of the ^99mTc-YIGSR-peptide of Example 12 was evaluated in adult female Sprague-Dawley rats at 2 hours after injection. Each experimental group was composed of three animals. Each animal was anaesthetised with ketamine and the bile duct and bladder were cannulated. Blood was collected over various periods of time from the jugular vein. […] In biodistribution studies, the highest amount of radioactivity was found in the kidneys, and is consistent with the rat clearance data. No major accumulation of radioactivity was found in any organ examined (other than kidney), and at later times (2 and 4 hours post injection) no re-distribution of the radiolabel was noted.

[7] = Biodistribution of 99mTc-YIGSR-peptide after tail vein injection; format: in vivo, adult female Swiss-Webster mice; settings: biodistribution studies
Protocol: The biodistribution of the ^99mTc-YIGSR-peptide of Example 12 was evaluated in adult female Swiss-Webster mice (approximately 19 g) at selected times (10, 30, and 120 minutes) after injection into the tail vein. Each experimental group was composed of at least five animals, with each animal receiving 0.1 ml containing 5 µg of peptide (1 µCi/µg). Animals were sacrificed by Halothane overdose, and selected organs dissected, weighed, and associated radioactivity determined. Data were analysed using a computer program specifically designed for ^99mTc-labelled preparations. The percent dose per organ for blood, bone, and muscle were calculated assuming 7, 8.2, and 40% of total body weight, respectively, for these tissues.

[8] = system: whole blood clots; experiment: In vitro binding of 99mTc-YIGSR-containing peptide to whole blood clots; format: cell-based, human; settings: 90 minutes, 0.5 ml of whole blood clots, 0.4 to 50 µg of radiolabelled peptide
Protocol: (§1) In other experiments, the peptide of Example 12, labelled as in Example 13, was used for in vitro binding studies. In these studies, the ^99mTc-YIGSR-containing peptide was incubated for 90 minutes with either 0.5 ml of whole blood clots, using from 0.4 to 50 µg of radiolabelled peptide, or with approximately 10^7 platelets, using from 2 to 200 µg of radiolabelled peptide.

[9] = system: platelets; experiment: In vitro binding of 99mTc-YIGSR-containing peptide to platelets; format: cell-based, human; settings: 90 minutes, approximately 10^7 platelets, 2 to 200 µg of radiolabelled peptide
Protocol: as §1

[10] = system: thromboembolism; experiment: Diagnostic imaging of thrombosis in a patient (gamma scintigraphy or SPECT); format: in vivo; settings: kit of Examples 12, 18, 19, or 20, i.v., imaged at 30 minute intervals
Protocol: A kit of Examples 12, 18, 19, or 20 is used in to localise thromboembolism in a patient. After radiolabelling with ^99mTc as in Example 13, the ^99mTc-YIGSR-peptide is injected intravenously. Starting immediately upon injection, the patient is imaged, using conventional gamma scintigraphy or SPECT imaging, and is imaged at 30 minute intervals thereafter.

Substance | amount of radioactivity in the circulation [1] | lung uptake [1] | bile clearance [2] [%] | clearance rate from the plasma [2] [mL/min] | injected dose cleared through urine [2] [%] | relative localisation in the lungs [3] | particles under a phase contrast microscope [4] | amount of radioactivity in the circulation [5] | bile clearance ([6]; at two hours) [%] | injected doses cleared through urine ([6]; at two hours) [%] | clearance rate from the plasma ([6]; rats) [mL/min] | organ with the highest amount of radioactivity [7] | binding to whole blood clots [8] | binding to platelets [9] | appearance of sites of thromboembolism by scintigraphy [10]
CSRARKQAASIKVAVSADR [^99mTc-IKVAV-containing peptide] | higher | significantly decreased | 0.9 ± 0.3 | 2.4 | 10.8 ± 4.9 | decreased | No particles were visible |  |  |  |  |  |  |  | 
H-CDPGYIGSR [^99mTc-YIGSR-peptide] |  |  |  |  |  |  |  | similar | 6.9 ± 0.3 | 31.2 ± 9.1 | 2.6 | kidneys | dose-response relationship | dose-response relationship | photon-rich image locations

Reference: patent EP0629133B1, “PEPTIDE-METAL ION PHARMACEUTICAL APPLICATIONS” (Rhomed, Incorporated, priority 1992, dated 1993)
